Experiments:
[1] = molecular target: Human EphA2, biotinylated (in house) (Human) (UniProt P29317); experiment: SPR, biotinylated human EphA2 on streptavidin
[2] = molecular target: Mouse EphA2 Fc fusion (Mouse) (UniProt Q03145); experiment: SPR, mouse EphA2-Fc captured by anti-human IgG
[3] = molecular target: Mouse EphA2 (Ecto), C-terminal polyHis (Mouse) (UniProt Q03145); experiment: FP competition against Reference Compound C (Study 2)
[4] = molecular target: Rat EphA2, biotinylated (in house) (Rat) (UniProt D3ZBN3); experiment: SPR, biotinylated rat EphA2 on streptavidin

Sequence of Mouse EphA2 Fc fusion (Mouse) (Q03145 26-535 limits assumed): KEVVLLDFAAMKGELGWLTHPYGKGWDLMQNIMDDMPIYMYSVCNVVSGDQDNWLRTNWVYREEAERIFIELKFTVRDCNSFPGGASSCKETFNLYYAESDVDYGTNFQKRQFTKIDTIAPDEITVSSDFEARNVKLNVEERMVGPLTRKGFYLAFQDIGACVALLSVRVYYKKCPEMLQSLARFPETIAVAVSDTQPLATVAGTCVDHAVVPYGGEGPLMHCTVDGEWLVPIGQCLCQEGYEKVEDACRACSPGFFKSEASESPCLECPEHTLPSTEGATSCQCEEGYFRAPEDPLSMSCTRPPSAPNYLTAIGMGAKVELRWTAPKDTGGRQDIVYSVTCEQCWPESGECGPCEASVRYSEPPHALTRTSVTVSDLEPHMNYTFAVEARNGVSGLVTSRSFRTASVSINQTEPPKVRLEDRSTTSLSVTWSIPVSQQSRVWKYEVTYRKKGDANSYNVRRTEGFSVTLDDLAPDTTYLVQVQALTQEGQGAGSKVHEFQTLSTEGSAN
Sequence of Mouse EphA2 (Ecto), C-terminal polyHis (Mouse) (Q03145 26-538): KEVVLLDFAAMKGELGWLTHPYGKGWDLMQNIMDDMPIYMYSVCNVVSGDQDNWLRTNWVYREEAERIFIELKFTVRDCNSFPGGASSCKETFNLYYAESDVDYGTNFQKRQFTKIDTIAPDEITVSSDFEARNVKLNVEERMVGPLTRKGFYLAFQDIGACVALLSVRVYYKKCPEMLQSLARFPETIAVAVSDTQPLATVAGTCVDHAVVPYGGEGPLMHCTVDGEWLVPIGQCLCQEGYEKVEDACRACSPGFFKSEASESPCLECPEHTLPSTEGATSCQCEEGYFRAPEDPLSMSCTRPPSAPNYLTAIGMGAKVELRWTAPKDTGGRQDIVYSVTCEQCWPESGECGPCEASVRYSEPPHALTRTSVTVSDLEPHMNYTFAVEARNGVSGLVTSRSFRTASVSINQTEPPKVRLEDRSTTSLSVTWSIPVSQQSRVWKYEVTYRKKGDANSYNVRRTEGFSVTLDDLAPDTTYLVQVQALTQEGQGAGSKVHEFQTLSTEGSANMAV

- Kd [1]: 1.17 nM
- t1/2 [1]: 10 min
- Kd [2]: 2.53 nM
- t1/2 [2]: 10.4 min
- Ki [3]: 5.5 nM
- Kd [4]: 2.96 nM
- t1/2 [4]: 12.6 min
Substance: BCY6136 (peptide)

Source: patent US20190184025A1
